# Patent US20210047411A1 (BIOND BIOLOGICS, published 2021)
# No end group written: not given here.
# T1: BSA conjugated CD28 stalk region dimeric peptide (human, not fully specified (C-terminus); also: hydrazide-terminated peptide conjugated to S-4FB modified BSA, dimeric peptide)
# T1 construct: Dimeric peptide; dimerization confirmed on a non-denaturing gel; also called stalk region peptide; dimeric human CD28 stalk region peptide
# T1 peptide: GKHLCPSPLFPGPSKPK
# B1: Antibody #2 (antibody, mouse IgG2b, kappa, V domains shown)
# VH: QVQLQQSGAELARPGASVKLSCKASGYTFTSYWMQWIKKRPGQGLEWIGAIYPGDGDTRYTQKFKGKATLTADKSSTTAYMQLSSLASEDSAVYFCARNYRYSSFGYWGQGTLVTVSA
# VL: DIVMTQSPSSLTVTAGEKVTLSCKSSQSLLNSGNQKNYLTWYQQKPGQPPQLLIYWASTRESGVPDRFTGSGSGTDFTLTISSVQAEDLAVYYCQSDYSYPLTFGAGTKLELKR
# B2: clone M9 (antibody, V domains shown)
# VH: DVKLVESGGGLVKLGGSLKLSCVASGFTFSSYYMSWVRQTPEKRLEWVATISDGGDNTYYAGTVTGRFTISRDFAKNTLYLQMNSLTSEDTAVYYCARIHWPYYFDSWGQGTTLTVSS
# VL: QFVLSQSPAILSASPGEMLTMTCRASSSVSYMNWYQQKPGSSPKPWIYATSDLASGVPARFSGSGSGTSYSLTISRVEAEDAATYYCQQWSSHPPTFGGGTKLEIR
# notes: also called 4G07; antibody M9
# B3: Antibody #1 (antibody, mouse IgG1, kappa, V domains shown)
# VH: QIQLVQSGPELKKPGETVKISCKASGYTLTNYGMNWVKQAPGKGLKWMGWINTYTGKPTYVDDFKGRFAFSLETSASTAYLQINNLKNEDTATYFCARGDANQQFAYWGQGTLVTVSA
# VL: DIKMTQSPSSMYASLGERVTITCKASQDINSYLSWFQQKPGKSPKTLIYRANRLVDGVPSRFSGSGSGQDYSLTISSLEYDDMGIYYCLQYDEFPPTFGAGTKLELKR
# Experiments:
# [1] = molecular target: T2, recombinant human CD28 (R&D systems, Cat. No. 342-CD; human CD28-Ig chimera) (human, UniProt P10747 19-152); test: direct ELISA, recombinant human sCD28 on maxisorp plates
# T2 construct: extracellular domain; also called rhCD28; recombinant human sCD28; not shown: Ig (Fc) portion of the bought chimera; not specified
# [2] = molecular target: T1, BSA conjugated CD28 stalk region …; test: ELISA, antigen on plate, serial dilution of antibody
# [3] = molecular target: Irrelevant control (Table 1); test: ELISA, same clone on the irrelevant control; unit not given
# [4] = molecular target: T2, recombinant human CD28 (R&D systems, …); test: direct ELISA, recombinant human sCD28 on maxisorp plates; reference CD28.2
binder,measurement,setting,value
B1,binding result,[1],binds
B2,binding result,[2],binds
same,ELISA signal on irrelevant control,[3],0.06
B3,fold detection against CD28.2,[4],~10 fold
